# Test results: the nanobody polyreactivity screen of Harvey et al. (2022)
# Assay: yeast display, Sf9 membrane polyspecificity reagent, FACS + sequencing; frameworks hold sequencing errors
# Procedure, shortened: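 In a synthetic yeast display library (Saccharomyces cerevisiae BJ5465), nanobody expression was induced with galactose for 36–48 hours. FACS gates were set low and high (top ~1%) using anti-HA fluorescence for expression and streptavidin fluorescence for binding of the Sf9 membrane reagent. Each polyreactivity label is drawn from the gate of origin.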
row,Sequence,polyreactivity (PSR sort gate)
1,QVQLVESGGGLVQAGGSLRLSCAASGSTFPSYVMGWSRQAPGKARELVAAISSSGGRTYYADSVKGRFTISRDNAKNTVYLQMNSLKPEDTAVYYCAAKRGPLVYDHDYWGQGTQVTVSS,high polyreactivity
2,QVQLVESGGGLVQAGGSLRLSCAASGIIFGRYAMGWYRQAPGKERELVAAISTSGGSTYYADSVKGRFTISRDNAKNTVYLQMNSLKPEDTAVYYCNAVPVVRAGHGYDSWGQGTQVTVSS,high polyreactivity
3,QVQLVESGGGLVQAGGSLRLSCAASGLTFSHYAMGWYRQAPGKERELVAGISSRGGNTYYADSVKGRFTISRDNAKNTVYLQMNSLKPEDTAVYYCATPRSRTDGYDYWGQGTQVTVSS,high polyreactivity
4,QVQLVESGGGLVQAGGSLRLSCAASGSIFKFNAMGWYRQAPGKERELDASITWTGTSTHYADSVKGRFTISRDNAKNTVFLQMNSLKPEDTAVYYCATYLYLWYEKGYTYDYWGQGTQVTVSS,high polyreactivity
5,QVQLVESGGGLVQAGGSLRLSCAASGLTFGHYAMGWYRQAPGKERELVATISSRGVSTRYADSVKGRFTISRDTAKNTVYLQMNSLKPEDTAVYYWHARDYTWGKYYSSKIGYYYWGQGTQVTVSS,high polyreactivity
6,QVQLVESGRGLVQAGGSLRLSCAASGITFGDNVMGWYRQAPGKERELVAAISRIGDDTYYADSVKGRFTISRDNAKNTVYLQMNSLKPEDTAVYYCATDYTQRDYYNYGYWGQGTQVTVSS,low polyreactivity
7,QVQLVESGGGLVQAGGSLRLSCAASGFTFHNYAMGLYRQSPGKEREFVAAITRNTASTYYADSVKGRFTISRDNAKITVYLQLNSLKPEDTAVYYCAATDKKHRNAYDSWGQVTQVTVSS,low polyreactivity
8,QVQLVESGGGLVQAGGSLRLSCAASGRTFLGYAMGWYRQAPGKERELVAGITSGGRTYYADSVKGRFTNSRDNAKNTVYLQMNSLKPEDTAVYYCAADTHGYDPMDYWGQGTQVTVSS,high polyreactivity
9,QVQLVESGGGLVQAGGSLRLSCAASGRTFQYNAMGWYRQAPGKERELVAAISWSDGITYYADSVKGSFTISRDNAKNTVYLQMNSLKPEDTAVYYCAAEGYGLSYYFPYDFWGQGTQVTVSS,high polyreactivity
10,QVQLVESGGGLVQAVGSLRLSCASSGNTFGPNAMGWYRQAPGKERELVAAIRWRGGSTYYADSVKGRFTISRDYAKNTVYLQMNSLKPVDNAVYYCAAGIHSPTYRTGTTYVDYDYWGQGTQVTVSS,high polyreactivity
11,QVQLVESGGGLVQAGGSLRLSCAASGSTFYSNAMGWYRQAPGKERELVAAINRGSSTYYADSVKGRFTISRDNAKNTVYLQMNSLKPDDTAVYYCAVDYFWYEMDYWGQGTQVTVSS,low polyreactivity
12,QVQLVESGGGLVQAGGSLRLSCAASGFNFGGYAMGWYRQAPGKERELVARITRSGGSTYYADSVKGRFTISRDNAKNTVYLQMNSLKPEDTAVYYCNADTPPNPYYYWGQGTQVTVSS,low polyreactivity
13,QVQLVESGGGLVQAGGSLRLSCAASGSTFRYNTMGWYRQAPGTERELVATISWRGGRTYYADSVKGRFTISRDNAKNTVYLQMNSLKPEDTAVYYCASIATVPRDYGGNYWGQGTQVTVSS,low polyreactivity
14,QVQRVESAAGLVQAGGSLRLSCAASGFIIVYYSMGWYRQAPGKERELVAAISRRGGSTYYADSVKGRFTISRDNAKNTVYLQMNSLKPEDTAVYYCNAVNVLAPSRGRRYDYWGQGTQVTVSS,high polyreactivity
15,QVQLVESGGGLVQAGGSLSLSCAASGRIFRRYAMGWYRPAPGKERELVASISSGGSTNYADSVKGRFTISRDNAKNTVYLQMNSLKPEDTAVYYCDADRARYYYQAYGAYGYWGQGTQVTVSS,high polyreactivity
16,QVQLVESGGGLVQAGRSLRLSCAASGFIILGNAMGWYRQAPGKERELVAAISSGGSTYADSVKGRFTISRDNAKNTVYLQMNSLKPEDTAVYYCAVDRAFRAQNYHEYDYWGQGTQVTVSS,low polyreactivity
17,QVQLQESGGGLVQAGGSLRLSCAASGTISEDDWSGWYRQAPGKERELVAAIGLGSNTNYADSLKGRFPISRDNAKNTVYLQMNSLKPEDTAVYYSAVSVWQYSDNVYRGQGTQVTVSS,low polyreactivity
18,QVQLVESGGGLVQAGGSLRLSCAASGRIFYDNAMGWYRQAPGKERELVAAISYSGDSTYYADSVKGRFTISRDNAKNTVYLQMNSLKPEDTAVYYCAAVYISQGAFAYDYWGQGTQVTVTS,low polyreactivity
19,QVHLVESGGGLVQAGGSLRLSCAASGTTFGDYAMGWYRQAPGKERELVAAISLSAGSTYYADSVKGRFTISRDNAKNTVYLQMNSLKPEDTAVYYCAAEYQYHWAYIYYYWGQGTQVTLSS,high polyreactivity
20,QVQLVESGGGLVHAGGRLRLSCAASGRIFFYYAMGWYRQAPGKERELVAAISQSGGSTYYADSVKGRFTISRDNAKNTVYLQMNSLKPEDTSVYYCNAADPYYVTSAVAGDYWGQGTQVTVSS,low polyreactivity
21,QVQHVESGGGLVQAGGRLRLRCAASGSIFGTYAMGWYRQAPGKERELVARISGGGSTYYADSVKGRFTISRDNAKNTVYLQMNSLKPEDTAVYYCNVRKWAYWSHAIIYNYWGQGTQVTVSS,high polyreactivity
22,QVQLVESGGGLVQAGGSLRLSCAASGFIFYRNTMGWYRQAPGKEREFVAAIRWRGGSTYYADPVKGRFTISRDNAKNTVYLQMNSLKPEDTAVYYCAADTRPGYSGFEYWGQGTQVTVSS,high polyreactivity

row,Sequence,polyreactivity (PSR sort gate)
1,QVQRVESGGGLVQAGGSLRLSCAASGSTFDRNAMGWYRQAPGKERELVAAIDYSGGSTYYADSVKGRFTISRDNAKNTVYLQMNSLKPEDTAVYYCAARVDGPDYSDGNYWGQGSQVTVSS,low polyreactivity
2,QVQLVESGGGLVQAGGSLRLSCAATGSTFTAYAMSWYRQAPGKESELVAAIRRIGGDTYYADSVKGLFTISRDNAKNTVYLQMNSLKPEDTAVYYCAAFRWRSLQYWYHSMDLWGQGSQVTVSS,low polyreactivity
3,QVQLVESGGGLVQAGGSLRLSCAASGLIIWLYTLGWYRQAPGKESELVAAIDWSGGSTYYADSVKGRFTISRDNAKNTVYLQMNSLKPEDTAVYYCAADPEPSYRFDYWGQGTQVTVSS,low polyreactivity
4,QVQLVESGGGLVQAGGSLRLSCAASGIIFYRYAMGWYRQAPGKERELVSAITWSGVSTSYADSVKGRFTISRDNAKNTVYLQMNSLKPEDTAVYYCAATNYGTFWGGQSERYDYWGQGTQVTVSS,low polyreactivity
5,QVQHVESWRGLVQAGGSLRLSCAASGSTNYPNAMGWSRQAPGKERELVPAITSGGSTYYADSVKGRFTISRDNAKNTVYLPMNSLKPEDTAVYYCAAQRRYHQDTTIGPGNYYYWGQGTQVTVSS,low polyreactivity
6,QVQLVESGGGLVQAGGSLRLSCAASGSTFINYAMGWYRQAPGKERELVAAYADSVKGRFTISRDNAKNTVYLQMNSLKPEDTAVYYCAARYVYPHQWTPYIRPYDYWGQGTQVTVSS,low polyreactivity
7,QVQLVESGGGLVQAGGSLRLSSAASGSIFGSNAMGWYRPAPVKERELVAAISSGSTYYADSVKGRFTISRDNAKNTVYLQMNSLKPEDTAVYYCYARSLLYEFDYWGQGTQVTVSS,low polyreactivity
8,QVQLVESGGGLVQAGGSLRLSCAASGSIFFYYAMGWYRQAPGKERELVAAIRSGTSTNYADSVKGRFTISRDNAKNTVYLQMNSLKPEDTAVYYCAARFPGGGYGMDYWGQGTKVTVSS,low polyreactivity
9,QVQLVESGGGLVQAGGSLRLSCAASGFIFHKYFMGWYTQAPGKERELVAAISRSGASTYYADSVKGRFTISRDNAKNTVYLQMNSLKPEDTAVYYCAKDYQTYSGSSDFDYWGQGTQVTVSS,high polyreactivity
10,QVQLVESGGGLVQAGGSLRLSCAASGRNFPRYAMGWYRQAPGKERELVAAISWRGGSTRYADSVKGRFTISRDNEKNTVYLQMNSLKPEDTAVYYCAAEFWFFPGWAYEYWGQGTQVTVSS,high polyreactivity
11,QVQLVESGGGLVQAGGSLRLSCAASGITFKYYAMGWYRQAPGKERELVAAISRSGGTTYYADSVKGRFTISRDNAKNTVYLQMNSLKPEDTAVYYCNKYTHYYDYDYWGQGTQVTVSS,high polyreactivity
12,QVQLVESAGGLVQAGGSLRLSCAHSGITYTRYAMGWYRHAPGKESELVAAISSGGRTNYADSVKGRFTISRDNAKNTVYLQMNTLKPEDTAVYYCNAAGHRWYPRYHYWGQGTQVTVSS,high polyreactivity
13,QVQLVESGGGLVQAGGSLRLSCAASGLTFVWYAMGWYRQAPGKERELVAAIRGGGSTYYADSVKGRFTISRDNAKNTVYLQMNSLKPEDTAVYYCNARYYGAHSPYRFDYWGQGTQVTVSS,high polyreactivity
14,QVQLVESGGGLVQAGGSLRLSCAASGRIFPVYAMGWYRQAPGKERELVAAIRRTGGSTYYADSVKGRFTISRDNAKNTVYLQLNRLKPEDTAVYYCSVSSQPPLSRYGRFGVGYWGQGTQVTVSS,high polyreactivity
15,QVQLVESGGGLVQAGGSLRISCAASGLTFYYNAMGWYRQAPGKDRELVATITWRGGRTYYADSVKGRFTISRDNAKNTVYLQMNCLKPEDTAVYYCAAGYFSQRLYLWFGYWGQGTQVTVSS,high polyreactivity
16,QVQLVESGGGLVEAAGSLRLSCAASGRILCGNTMGWYRQATGKERELFAAISWNGGGTYYADSVKGRFTISRDTAKNNVYLQMNSLTPEDTAVYYCATRYTYSTDTGYDYWGQGTQVTVSS,low polyreactivity
17,QVQLVESGGGLVQAGGSLRLSCAASGIIFTGYAMGWYRQAPGKERELVAAISRSGGGTYYADSVKGRFTISRDNAKNTVYLQMNSLKPEDTAVDYCNRLRIAASYWQAYDYWGQGTQLTVSS,high polyreactivity
18,QVQLVESGGGLVQAGGSLRLSCAASGSTSRLNAMGWYRQAPGKERELVAAISGSGGRTYYADSVKGRFTISRDTAKTTVYLQMNSQKPEDTAVYYCNAAYSAKVHPEMYYWGPGTQVTVSS,high polyreactivity
19,QVQLVESGGGLVQAGGSLRLSCAASGITFIRYAMGWYTQAPGKERELVAAIDRSGGSTYYADSVKGRFTISRDTAKNTVYLQMNSLKPEDTAVYYCAARRVRGLDYWGQGTQVTVSS,high polyreactivity
20,QVQLVESGGGLVQAGGSLRLSCAASGITFGRYAMGWYRQAPGKERELVAAISRGSGSTYYADSVKGRFTISRDNAKNTVYLQMNSLKPEDTAVYYCAKVVRVGMGYWGQGTQVTVSS,high polyreactivity
21,QGQRVESAGGLVQAGGSLRLSCDASGRIFDNYAMGWSSPAPGKERELVAAISRAGNTYADSVKGRVTISRDNAKNTVNLQMNSLNPEETAVFYCAARLYWGRYNYWGQGTQVTVSS,high polyreactivity
